Assays:
Assay in all cases: cell-based or functional assay
hKV11.1/hERG (human) = hKV11.1/hERG (human) (UniProt Q12809)
hKCNQ1/minK (human) = hKCNQ1/minK (human) (UniProt P51787)
hNav1.5 (human) = hNav1.5 (human) (UniProt Q14524)
hCav1.2 (human) = hCav1.2 (human) (UniProt Q13936)

hKV11.1/hERG (human), sequence (Q12809 whole entry): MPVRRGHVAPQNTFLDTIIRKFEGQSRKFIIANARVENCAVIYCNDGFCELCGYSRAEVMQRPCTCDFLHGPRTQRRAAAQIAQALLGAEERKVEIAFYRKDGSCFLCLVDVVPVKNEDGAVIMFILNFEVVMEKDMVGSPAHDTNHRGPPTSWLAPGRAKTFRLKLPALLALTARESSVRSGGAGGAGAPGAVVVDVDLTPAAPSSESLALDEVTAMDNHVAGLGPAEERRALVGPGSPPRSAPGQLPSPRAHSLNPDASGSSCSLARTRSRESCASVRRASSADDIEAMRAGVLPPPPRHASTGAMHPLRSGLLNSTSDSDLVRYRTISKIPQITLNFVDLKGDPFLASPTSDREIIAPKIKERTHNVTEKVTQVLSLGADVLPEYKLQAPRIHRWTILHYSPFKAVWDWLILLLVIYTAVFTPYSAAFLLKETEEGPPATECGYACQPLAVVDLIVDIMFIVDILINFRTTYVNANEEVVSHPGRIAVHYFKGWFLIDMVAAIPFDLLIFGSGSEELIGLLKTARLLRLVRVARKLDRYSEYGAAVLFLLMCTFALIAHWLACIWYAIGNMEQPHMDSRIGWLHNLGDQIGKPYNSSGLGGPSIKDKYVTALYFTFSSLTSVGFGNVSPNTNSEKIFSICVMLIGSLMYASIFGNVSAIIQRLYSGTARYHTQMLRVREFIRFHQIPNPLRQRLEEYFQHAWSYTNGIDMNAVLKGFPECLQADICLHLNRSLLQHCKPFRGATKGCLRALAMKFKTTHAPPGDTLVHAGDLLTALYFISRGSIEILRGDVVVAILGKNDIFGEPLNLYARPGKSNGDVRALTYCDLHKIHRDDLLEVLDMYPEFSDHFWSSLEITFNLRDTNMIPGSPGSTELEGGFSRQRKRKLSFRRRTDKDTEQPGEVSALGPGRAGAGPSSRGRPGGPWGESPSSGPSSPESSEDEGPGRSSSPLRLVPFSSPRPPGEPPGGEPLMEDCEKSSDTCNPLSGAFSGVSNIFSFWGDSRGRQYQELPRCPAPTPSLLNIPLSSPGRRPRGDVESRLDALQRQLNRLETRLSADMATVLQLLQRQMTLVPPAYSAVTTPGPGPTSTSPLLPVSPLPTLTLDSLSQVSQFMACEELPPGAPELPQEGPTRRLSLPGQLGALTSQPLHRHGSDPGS
hNav1.5 (human), sequence (Q14524 whole entry): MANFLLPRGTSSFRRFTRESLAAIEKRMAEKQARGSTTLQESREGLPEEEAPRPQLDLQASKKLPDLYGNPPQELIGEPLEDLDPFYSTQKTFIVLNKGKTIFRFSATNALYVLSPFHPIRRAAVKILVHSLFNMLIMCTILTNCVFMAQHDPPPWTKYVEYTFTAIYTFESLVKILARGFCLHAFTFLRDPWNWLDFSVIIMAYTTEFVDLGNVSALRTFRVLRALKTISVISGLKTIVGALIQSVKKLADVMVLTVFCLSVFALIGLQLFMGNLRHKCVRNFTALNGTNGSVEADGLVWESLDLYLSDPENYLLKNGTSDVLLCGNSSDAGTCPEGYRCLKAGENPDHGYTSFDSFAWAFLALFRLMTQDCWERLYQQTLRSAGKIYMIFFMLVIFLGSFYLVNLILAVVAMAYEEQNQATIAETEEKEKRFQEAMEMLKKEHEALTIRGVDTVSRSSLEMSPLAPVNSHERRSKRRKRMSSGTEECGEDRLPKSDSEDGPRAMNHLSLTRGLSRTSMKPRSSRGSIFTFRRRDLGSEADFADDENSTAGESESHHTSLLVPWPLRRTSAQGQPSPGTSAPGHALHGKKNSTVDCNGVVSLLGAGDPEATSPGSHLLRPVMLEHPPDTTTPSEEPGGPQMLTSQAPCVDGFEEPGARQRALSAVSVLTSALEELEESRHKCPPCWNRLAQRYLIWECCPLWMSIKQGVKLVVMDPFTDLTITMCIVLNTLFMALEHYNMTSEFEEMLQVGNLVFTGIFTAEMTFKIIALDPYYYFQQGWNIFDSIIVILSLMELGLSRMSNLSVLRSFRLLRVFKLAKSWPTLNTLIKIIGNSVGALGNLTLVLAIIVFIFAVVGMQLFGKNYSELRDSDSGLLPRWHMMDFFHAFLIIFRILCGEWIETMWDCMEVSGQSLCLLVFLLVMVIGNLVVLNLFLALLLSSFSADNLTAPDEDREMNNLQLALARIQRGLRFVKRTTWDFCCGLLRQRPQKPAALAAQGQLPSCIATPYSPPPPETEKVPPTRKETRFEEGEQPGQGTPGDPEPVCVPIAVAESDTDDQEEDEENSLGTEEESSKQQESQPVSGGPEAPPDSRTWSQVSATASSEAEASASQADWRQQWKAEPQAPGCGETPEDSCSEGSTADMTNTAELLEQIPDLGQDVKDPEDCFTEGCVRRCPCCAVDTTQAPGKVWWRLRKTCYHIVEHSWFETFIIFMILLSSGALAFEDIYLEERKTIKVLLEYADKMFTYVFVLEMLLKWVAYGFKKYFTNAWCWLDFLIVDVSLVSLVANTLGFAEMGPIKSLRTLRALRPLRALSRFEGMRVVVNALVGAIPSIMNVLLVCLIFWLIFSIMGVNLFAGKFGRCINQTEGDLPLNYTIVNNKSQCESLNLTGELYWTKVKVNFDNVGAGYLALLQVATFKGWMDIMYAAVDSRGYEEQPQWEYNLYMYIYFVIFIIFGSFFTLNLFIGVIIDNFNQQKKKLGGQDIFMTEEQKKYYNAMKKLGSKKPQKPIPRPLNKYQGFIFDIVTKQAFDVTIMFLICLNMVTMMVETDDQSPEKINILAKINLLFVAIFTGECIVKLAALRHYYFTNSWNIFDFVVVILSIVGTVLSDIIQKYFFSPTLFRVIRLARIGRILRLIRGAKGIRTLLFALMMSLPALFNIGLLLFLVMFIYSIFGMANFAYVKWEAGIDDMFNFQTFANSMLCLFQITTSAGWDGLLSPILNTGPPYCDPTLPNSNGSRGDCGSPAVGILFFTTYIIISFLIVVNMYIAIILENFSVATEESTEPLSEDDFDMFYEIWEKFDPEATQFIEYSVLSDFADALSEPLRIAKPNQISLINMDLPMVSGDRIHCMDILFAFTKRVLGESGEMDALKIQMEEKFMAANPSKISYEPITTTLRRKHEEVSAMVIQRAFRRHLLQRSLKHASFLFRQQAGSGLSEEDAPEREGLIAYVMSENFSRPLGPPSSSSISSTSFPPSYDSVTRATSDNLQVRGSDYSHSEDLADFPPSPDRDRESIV

Hi1a (recombinant, with non-native N-terminal serine) (peptide)
% inhibition of hERG current, mean, 1 µM Hi1a (hKV11.1/hERG (human)): -6.2% | % inhibition of hERG current, n1, 1 µM Hi1a (hKV11.1/hERG (human)): -7.5% | % inhibition of hERG current, n2, 1 µM Hi1a (hKV11.1/hERG (human)): 1.58% | % inhibition of hERG current, n3, 1 µM Hi1a (hKV11.1/hERG (human)): -12.7% | % inhibition of hKCNQ1/mink current, mean, 1 µM Hi1a (hKCNQ1/minK (human)): 0.17% | % inhibition of hKCNQ1/mink current, n1, 1 µM Hi1a (hKCNQ1/minK (human)): 1.87% | % inhibition of hKCNQ1/mink current, n2, 1 µM Hi1a (hKCNQ1/minK (human)): -0.67% | % inhibition of hKCNQ1/mink current, n3, 1 µM Hi1a (hKCNQ1/minK (human)): -0.68% | % inhibition of hNav1.5 current, mean, 1 µM Hi1a (hNav1.5 (human)): 8.46% | % inhibition of hNav1.5 current, n1, 1 µM Hi1a (hNav1.5 (human)): 7.31% | % inhibition of hNav1.5 current, n2, 1 µM Hi1a (hNav1.5 (human)): 11% | % inhibition of hNav1.5 current, n3, 1 µM Hi1a (hNav1.5 (human)): 7.1% | % inhibition, hNav1.5 Late current antagonist assay, mean, 1 µM Hi1a (hNav1.5 (human)): -12.4% | % inhibition, hNav1.5 Late current antagonist assay, n1, 1 µM Hi1a (hNav1.5 (human)): -9.74% | % inhibition, hNav1.5 Late current antagonist assay, n2, 1 µM Hi1a (hNav1.5 (human)): -13.9% | % inhibition, hNav1.5 Late current antagonist assay, n3, 1 µM Hi1a (hNav1.5 (human)): -13.4% | % inhibition of hCav1.2 current, mean, 1 µM Hi1a (hCav1.2 (human)): 8.98% | % inhibition of hCav1.2 current, n1, 1 µM Hi1a (hCav1.2 (human)): 2.79% | % inhibition of hCav1.2 current, n2, 1 µM Hi1a (hCav1.2 (human)): 13.2% | % inhibition of hCav1.2 current, n3, 1 µM Hi1a (hCav1.2 (human)): 10.9%

Reference: US20220177846A1
